Reference: patent publication US20130052177

Legend:
[1] = target: KRS (lysyl-tRNA synthetase, full-length 1-597) (Homo sapiens) (UniProt Q15046); experiment: EMSA; settings: affinity from percent free tRNA; 0.1 uM tRNA; 20 mM HEPES pH 7.5, 20 mM KCl, 5 mM MgCl2, 2 mM DTT, on ice
[2] = system: Flavo-KRS (monomeric full-length KRS with E. coli flavodoxin inserted at G310) (Homo sapiens / Escherichia coli fusion); experiment: EMSA; settings: affinity from percent free tRNA; slightly weaker than native KRS; 0.1 uM tRNA; 20 mM HEPES pH 7.5, 20 mM KCl, 5 mM MgCl2, 2 mM DTT, on ice

Chain of KRS (lysyl-tRNA synthetase, full-length 1-597) (Homo sapiens) (Q15046 whole entry, the tested form may be a part): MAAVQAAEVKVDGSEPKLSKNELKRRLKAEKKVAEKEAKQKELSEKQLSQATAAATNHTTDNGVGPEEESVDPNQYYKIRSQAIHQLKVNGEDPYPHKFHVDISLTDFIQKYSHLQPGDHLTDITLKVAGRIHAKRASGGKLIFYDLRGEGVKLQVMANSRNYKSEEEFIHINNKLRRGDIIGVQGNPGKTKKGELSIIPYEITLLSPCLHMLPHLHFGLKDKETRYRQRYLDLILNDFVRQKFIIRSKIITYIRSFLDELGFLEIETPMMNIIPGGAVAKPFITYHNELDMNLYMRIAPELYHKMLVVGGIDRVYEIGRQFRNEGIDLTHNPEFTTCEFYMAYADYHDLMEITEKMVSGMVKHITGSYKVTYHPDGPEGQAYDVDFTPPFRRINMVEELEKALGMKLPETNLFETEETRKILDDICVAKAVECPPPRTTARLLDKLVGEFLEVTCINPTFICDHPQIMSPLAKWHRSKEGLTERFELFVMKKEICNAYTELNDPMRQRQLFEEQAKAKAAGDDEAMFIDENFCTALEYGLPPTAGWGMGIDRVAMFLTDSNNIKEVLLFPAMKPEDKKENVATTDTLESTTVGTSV

human tRNALys3 (in vitro transcript)
Kd [1]: 870 nM
Kd [2]: 1210 nM
